Test results from article PMC4565669, “Insulin and mTOR Pathway Regulate HDAC3-Mediated Deacetylation and Activation of PGK1” (PLoS Biology, 2015).

Legend:
PGK1 [1] = biological target: PGK1 (UniProt P00558); experiment: co-IP of HA-HDAC3, PGK1 blot; settings: reference: wild type HA-HDAC3; sites S424
PGK1 [2] = biological target: PGK1 (UniProt P00558); experiment: co-IP with HA beads, Flag blot; settings: reference: wild type HDAC3, insulin-treated; sites S424
GST-HDAC3 (recombinant) = biological target: T1, GST-HDAC3 (recombinant) (UniProt O15379-1 1-428); experiment: pull-down; in vitro pull-down with recombinant GST-HDAC3 (30 ug) and His-PGK1 (10 ug) purified from E. coli; details in S1 Text; settings: both partners purified
T1 construct: source: E. coli, purified
T1 sequence (O15379 whole entry): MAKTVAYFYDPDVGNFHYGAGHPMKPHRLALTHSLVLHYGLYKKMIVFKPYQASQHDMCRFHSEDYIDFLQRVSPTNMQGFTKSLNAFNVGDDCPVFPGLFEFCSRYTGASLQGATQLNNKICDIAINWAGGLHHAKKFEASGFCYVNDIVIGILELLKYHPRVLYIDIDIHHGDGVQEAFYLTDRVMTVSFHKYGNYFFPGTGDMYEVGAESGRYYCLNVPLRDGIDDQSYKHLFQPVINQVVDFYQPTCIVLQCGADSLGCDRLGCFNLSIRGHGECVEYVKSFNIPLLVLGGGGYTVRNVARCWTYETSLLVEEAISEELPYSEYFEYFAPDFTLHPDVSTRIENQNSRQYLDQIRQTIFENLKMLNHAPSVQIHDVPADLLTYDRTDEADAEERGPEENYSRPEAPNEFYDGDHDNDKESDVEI

HDAC3 (from UniProt O15379) S424A
binding against the reference (PGK1 [1]): weaker

HDAC3 (from UniProt O15379) S424A, insulin-treated
binding against the reference (PGK1 [2]): weaker

B1: His-PGK1 (recombinant) (enzyme, human, UniProt P00558 1-417, looked up)
chain: MSLSNKLTLDKLDVKGKRVVMRVDFNVPMKNNQITNNQRIKAAVPSIKFCLDNGAKSVVLMSHLGRPDGVPMPDKYSLEPVAVELKSLLGKDVLFLKDCVGPEVEKACANPAAGSVILLENLRFHVEEEGKGKDASGNKVKAEPAKIEAFRASLSKLGDVYVNDAFGTAHRAHSSMVGVNLPQKAGGFLMKKELNYFAKALESPERPFLAILGGAKVADKIQLINNMLDKVNEMIIGGGMAFTFLKVLNNMEIGTSLFDEEGAKIVKDLMSKAEKNGVKITLPVDFVTADKFDENAKTGQATVASGIPAGWMGLDCGPESSKKYAEAVTRAKQIVWNGPVGVFEWEAFARGTKALMDEVVKATSRGCITIIGGGDTATCCAKWNTEDKVSHVSTGGGASLELLEGKVLPGVDALSNI
notes: Phosphoglycerate kinase 1 (PGK1), human, Gene ID 5230; unacetylated recombinant protein; also called His-tagged PGK1; source: E. coli, purified
binding result (GST-HDAC3 (recombinant)): binds
